Results: patent US20240417469A1 (CONCEPT TO MEDICINE BIOTECH, published 2024)
Changes are numbered by the printed parent chain. Values joined by “and” are separate entries in the source; they are usually repeats but may differ in a detail not shown here. Equal values may be shown once.

B1: 192A7B9 chimeric mAb (antibody, V domains shown)
VH: QVQLKESGPGLVQPSQTLSLNCTVSGFSLTSYNVHWVRQPPGKGLEWMGRMRYNGDTSYNSALKSRLSISRDTSKNQVFLKMNSLQTDDTGTYYCTRGPRGGYYSALFDYWGQGVMVTVSS
VL: DIQMTQSPSFLSASVGDRVTINCKASQNINRYLNWYQQKLGDAPKVLISIANSLQTGIPSRFSGSGSGTDFTLTISSLQPEDVATYFCLQHNSWYTFGAGTKLELK
notes: Chimeric mAb
B2: 155A9B1 chimeric mAb (antibody, V domains shown)
VH: B1 VH with N21T, M51V, V78A, T87I, R100Y, Y103S, Y104S, S105E, A106P
VL: DIKMTQSPSFLSASVGDRVTINCKASQNINKYLNWFQQKLGEAPRLLIYTTNNLQTGIPSRFSGSGSGTDFTLTISSLQPEDVATYFCLQHNSGYTFGAGTKLELK
notes: Chimeric mAb
B3: 153A6B1 chimeric mAb (antibody, V domains shown)
VH: B1 VH with N21T, V34I, M51I, N83S, R100Y, Y103S, Y104R, S105E, A106P
VL: B2 VL with S14A, A25T, E42A, R45K, N92G
notes: Chimeric mAb of the hybridoma clone; also called 153A6B1C8
B4: SP34 monoclonal antibody (antibody, human IgG1, lambda, N297A, V domains shown)
VH: EVQLVESGGGLVQPKGSLKLSCAASGFTFNTYAMNWVRQAPGKGLEWVARIRSKYNNYATYYADSVKDRFTISRDDSQSILYLQMNNLKTEDTAMYYCVRHGNFGNSYVSWFAYWGQGTLVTVSA
VL: QAVVTQESALTTSPGETVTLTCRSSTGAVTTSNYANWVQEKPDHLFTGLIGGTNKRAPGVPARFSGSLIGDKAALTITGAQTEDEAIYFCALWYSNLWVFGGGTKLTVLG
notes: also called SP34 (Biointron, B6762)
B5: Hu155A9B1-4 (antibody, V domains shown)
VH: EVQLQESGPGLVKPSETLSLTCTVSGGSISSYNVHWVRQPPGKGLEWMGRVRYNGDTSYNSALKSRLTISRDTSKNQFSLKLSSVTAADTAVYYCTRGPYGGSSEPLFDYWGQGTMVTVSS
VL: DIQMTQSPSSLSASVGDRVTITCKASQNINKYLNWYQQKPGKAPRLLIYTTNNLQTGVPSRFSGSGSGTDFTLTISSLQPEDFATYYCLQHNSGYTFGQGTKLEIK
notes: humanized mAb
B6: Hu155A9B1-3 (antibody, V domains shown)
VH: B5 VH with T96A
VL: B5 VL
notes: humanized mAb
B7: Hu155A9B1-8 (antibody, V domains shown)
VH: B5 VH with M48I, L67V, T96A
VL: B5 VL with Y36F, V58I
notes: humanized mAb; also called 155z8
B8: Hu155A9B1-10 (antibody, V domains shown)
VH: B5 VH
VL: B5 VL with Y36F, V58I
notes: humanized mAb
B9: Hu155A9B1-14 (antibody, V domains shown)
VH: B5 VH with M48I, L67V, T96A
VL: B5 VL with Y36F, V58I, Y87F
notes: humanized mAb
B10: Hu155A9B1-18 (antibody, V domains shown)
VH: B5 VH with G27F, I29L, S30T, F78A
VL: B5 VL with Y36F, V58I, Y87F
notes: humanized mAb
B11: Hu155A9B1-13 (antibody, V domains shown)
VH: B5 VH with V37I, M48I, L67V, R71V, T96A
VL: B5 VL with Y36F, V58I, Y87F
notes: humanized mAb
B12: Hu155A9B1-15 (antibody, V domains shown)
VH: B5 VH with T96A
VL: B5 VL with Y36F, V58I, Y87F
notes: humanized mAb
B13: Hu155A9B1-11 (antibody, V domains shown)
VH: B5 VH with G27F, F78A
VL: B5 VL with Y36F, V58I
notes: humanized mAb
B14: Hu155A9B1-6 (antibody, V domains shown)
VH: B5 VH with G27F, I29L, S30T, F78A
VL: B5 VL
notes: humanized mAb
B15: Hu155A9B1-17 (antibody, V domains shown)
VH: B5 VH with G27F, F78A
VL: B5 VL with Y36F, V58I, Y87F
notes: humanized mAb
B16: Hu155A9B1-16 (antibody, V domains shown)
VH: B5 VH
VL: B5 VL with Y36F, V58I, Y87F
notes: humanized mAb; also called 155z16
B17: Hu155A9B1-9 (antibody, V domains shown)
VH: B5 VH with T96A
VL: B5 VL with Y36F, V58I
notes: humanized mAb
B18: Hu155A9B1-5 (antibody, V domains shown)
VH: B5 VH with G27F, F78A
VL: B5 VL
notes: humanized mAb; also called 155z5
B19: Hu155A9B1-7 (antibody, V domains shown)
VH: B5 VH with V37I, M48I, L67V, R71V, T96A
VL: B5 VL with Y36F, V58I
notes: humanized mAb
B20: Hu155A9B1-12 (antibody, V domains shown)
VH: B5 VH with G27F, I29L, S30T, F78A
VL: B5 VL with Y36F, V58I
notes: humanized mAb

Biological target: T1, cynomolgus CD3 on cynomolgus PBMC (cynomolgus, UniProt Q95LI5 22-198; Q95LI8 22-171; Q95LI7 23-181)
T1 construct: whole, on cells; Native CD3 complex on cynomolgus T cells; also called cyno PBMC; cynoPBMCs
T1 sequence (Q95LI5 22-198, chain 1 of 3): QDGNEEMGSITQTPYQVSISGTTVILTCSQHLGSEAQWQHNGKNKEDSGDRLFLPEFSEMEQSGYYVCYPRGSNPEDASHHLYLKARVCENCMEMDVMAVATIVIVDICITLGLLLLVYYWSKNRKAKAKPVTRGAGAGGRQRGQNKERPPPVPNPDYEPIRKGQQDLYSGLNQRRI
T1 sequence (Q95LI8 22-171, chain 2 of 3): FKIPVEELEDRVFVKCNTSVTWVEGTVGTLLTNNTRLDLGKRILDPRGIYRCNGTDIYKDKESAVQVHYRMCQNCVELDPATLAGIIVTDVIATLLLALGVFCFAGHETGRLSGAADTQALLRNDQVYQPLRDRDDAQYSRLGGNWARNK
T1 sequence (Q95LI7 23-181, chain 3 of 3): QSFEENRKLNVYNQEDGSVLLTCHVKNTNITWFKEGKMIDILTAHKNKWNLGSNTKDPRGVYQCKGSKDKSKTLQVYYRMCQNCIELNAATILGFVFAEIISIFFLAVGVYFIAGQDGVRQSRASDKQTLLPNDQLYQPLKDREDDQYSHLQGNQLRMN
Experiment: FACS on cynomolgus PBMC, PE anti-human IgG Fc secondary, geometric mean fluorescence

| Binder | binding result |
| --- | --- |
| B1 | binds |
| B2 | binds |
| B3 | binds |
| B4 | binds |

Biological target: T2, human CD3 on cells (human PBMC; Jurkat TCR/CD3 NFAT reporter cells) (human, UniProt P07766 23-207; P04234 22-171; P09693 23-182)
T2 sequence (P07766 23-207, chain 1 of 3): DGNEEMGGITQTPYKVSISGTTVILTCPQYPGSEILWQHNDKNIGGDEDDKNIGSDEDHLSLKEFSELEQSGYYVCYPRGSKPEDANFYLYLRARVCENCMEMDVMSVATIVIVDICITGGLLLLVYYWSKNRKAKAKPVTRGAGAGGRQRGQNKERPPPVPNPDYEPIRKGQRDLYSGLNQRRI
T2 sequence (P04234 22-171, chain 2 of 3): as the sequence (Q95LI8 22-171, chain 2 of 3) above, with V5I, K15N, V20I, T32S, N33D, N34I, A64T, N74S, L83V, R141H counted along it
T2 sequence (P09693 23-182, chain 3 of 3): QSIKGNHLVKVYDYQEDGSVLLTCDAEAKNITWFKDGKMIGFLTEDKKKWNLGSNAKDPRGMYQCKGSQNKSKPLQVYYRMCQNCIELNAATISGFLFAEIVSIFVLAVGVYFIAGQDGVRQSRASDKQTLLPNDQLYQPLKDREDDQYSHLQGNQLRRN
Experiment: cell-based or functional assay

| Binder | CD3-NFAT Activity by CD3 mAb [% SP34] |
| --- | --- |
| B5 | ≤ 50 |
| B6 | ≤ 50 |
| B7 | ≤ 50 |
| B8 | ≤ 50 |
| B9 | ≤ 50 |
| B10 | > 50 |
| B11 | ≤ 50 |
| B12 | ≤ 50 |
| B13 | > 50 |
| B14 | > 50 |
| B15 | > 50 |
| B16 | ≤ 50 |
| B17 | ≤ 50 |
| B18 | > 50 |
| B19 | ≤ 50 |
| B20 | > 50 |

Biological target: T2, human CD3 on cells (human PBMC; Jurkat …)
Experiment: cell-based or functional assay
Remark: another data set of the same source

| Binder | % of SP34 [%] | Emax |
| --- | --- | --- |
| B5 | 14.8 | 752 |
| B6 | 12.8 | 648 |
| B7 | 26.2 | 1330 |
| B8 | 24 | 1380 |
| B9 | 19.1 | 1100 |
| B10 | 74 | 4250 |
| B11 | 18.4 | 1060 |
| B12 | 20.1 | 1150 |
| B13 | 78.4 | 4500 |
| B14 | 84.8 | 4300 |
| B15 | 76 | 4370 |
| B16 | 21.6 | 1240 |
| B17 | 34.9 | 1770 |
| B18 | 79.9 | 4050 |
| B19 | 22.6 | 1140 |
| B20 | 72.4 | 4160 |
| B4 | 100 |  |

Biological target: T3, recombinant CD3D&E protein (human CD3-his tag) (human, UniProt P04234 22-105; P07766 23-126, limits assumed)
T3 construct: Analyte in Biacore; also called CD3D&E-His; CD3d&ε-His
T3 sequence (P04234 22-105 limits assumed, chain 1 of 2): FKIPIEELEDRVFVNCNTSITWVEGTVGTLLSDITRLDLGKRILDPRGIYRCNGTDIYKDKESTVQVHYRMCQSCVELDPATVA
T3 sequence (P07766 23-126 limits assumed, chain 2 of 2): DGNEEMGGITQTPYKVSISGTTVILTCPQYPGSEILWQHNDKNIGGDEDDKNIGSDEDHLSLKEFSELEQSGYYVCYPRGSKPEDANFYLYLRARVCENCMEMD
Experiment: SPR Biacore, Ab captured on Protein A

| Binder | Kd [nM] | koff [s⁻¹] | kon [M⁻¹ s⁻¹] |
| --- | --- | --- | --- |
| B5 | 15.8 | 0.00648 | 409000 |
| B6 | 18 | 0.00667 | 370000 |
| B7 | 70.2 | 0.0159 | 226000 |
| B8 | 80.5 | 0.015 | 187000 |
| B9 | 79.2 | 0.0187 | 236000 |
| B10 | 51.4 | 0.00291 | 56600 |
| B11 | 12.6 | 0.00354 | 280000 |
| B12 | 53.5 | 0.0152 | 285000 |
| B13 | 44.1 | 0.00306 | 69300 |
| B14 | 62.1 | 0.00593 | 95400 |
| B15 | 43.6 | 0.00307 | 70400 |
| B16 | 95.6 | 0.0165 | 173000 |
| B17 | 55 | 0.0155 | 282000 |
| B18 | 61.4 | 0.00637 | 104000 |
| B19 | 13.5 | 0.00547 | 406000 |
| B20 | 51.2 | 0.00286 | 55900 |
| B1 | 6.34 | 0.000442 | 69700 |
| B2 | 36.1 | 0.00207 | 57200 |
| B3 | 8.69 | 0.000694 | 79900 |

Biological target: T4, human CD3 protein (human, UniProt P07766 23-126; P04234 22-105)
T4 construct: ELISA coating protein; also called Human CD3D & CD3E Heterodimer Protein
T4 sequence (P07766 23-126 limits assumed, chain 1 of 2): as the sequence (P07766 23-126 limits assumed, chain 2 of 2) above
T4 sequence (P04234 22-105 limits assumed, chain 2 of 2): as the sequence (P04234 22-105 limits assumed, chain 1 of 2) above
Experiment: ELISA, plate-coated CD3

| Binder | EC50 |
| --- | --- |
| B5 | 16.4 ng/mL |
| B6 | 32.2 ng/mL |
| B7 | 5.84 ng/mL |
| B8 | 6.04 ng/mL |
| B9 | 5.66 ng/mL |
| B10 | 1.95 ng/mL |
| B11 | 124 ng/mL |
| B12 | 6.51 ng/mL |
| B13 | 3.2 ng/mL |
| B14 | 4.16 ng/mL |
| B15 | 3.07 ng/mL |
| B16 | 7.28 ng/mL |
| B17 | 6.28 ng/mL |
| B18 | 3.27 ng/mL |
| B19 | 136 ng/mL |
| B20 | 3.35 ng/mL |
| B1 | 2.53 ng/mL and 2.85 ng/mL and 2.16 ng/mL and 2.3 ng/mL |
| B2 | 2.7 ng/mL and 2.54 ng/mL and 2.34 ng/mL |
| B3 | 3.42 ng/mL and 2.91 ng/mL and 2.74 ng/mL |

Biological target: T2, human CD3 on cells (human PBMC; Jurkat …)
Experiment: FACS on human PBMC, PE anti-human IgG Fc secondary, geometric mean fluorescence

| Binder | EC50 (read off the curve) [nM] |
| --- | --- |
| B4 | ~1 |

Biological target: T3, recombinant CD3D&E protein (human …)
Experiment: SPR Biacore, Ab captured on Protein A
Remark: another data set of the same source

| Binder | Kd [nM] | koff [s⁻¹] | kon [M⁻¹ s⁻¹] |
| --- | --- | --- | --- |
| B1 | 6.34 | 0.000442 | 69700 |
| B2 | 36.1 | 0.00207 | 57200 |
| B3 | 8.69 | 0.000694 | 79900 |
| B4 | 6.89 | 0.00292 | 424000 |

Biological target: T5, cynomolgus CD3 protein (cynomolgus)
T5 construct: ELISA coating protein
T5 sequence (Q95LI5 22-117, chain 1 of 2): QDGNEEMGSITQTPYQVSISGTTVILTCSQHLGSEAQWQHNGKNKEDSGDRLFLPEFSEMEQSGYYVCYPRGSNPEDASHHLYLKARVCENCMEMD
T5 sequence (Q95LI8 22-105, chain 2 of 2, further chain): as the sequence (P04234 22-105 limits assumed, chain 1 of 2) above, with I5V, N15K, I20V, S32T, D33N, I34N, T64A, S74N, V83L counted along it
Experiment: ELISA, plate-coated CD3

| Binder | EC50 [ng/mL] |
| --- | --- |
| B1 | 2.16 |
| B2 | 2.33 |
| B3 | 2.88 |
| B4 | 6.18 |

Biological target: T4, human CD3 protein
Experiment: ELISA, plate-coated CD3
Remark: another data set of the same source

| Binder | EC50 [ng/mL] |
| --- | --- |
| B1 | 1.91 |
| B2 | 2.15 |
| B3 | 2.79 |
| B4 | 6.48 |
